Experimental data as given in US20260274955A1 (JANUX THERAPEUTICS, published 2026).

The binders below were run against T1, anti-CD28 Fab (SEQ ID NOs: 202, 203) (assay: phage binding ELISA; biotinylated Fab on neutravidin plate;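 also: clonal phage supernatants added to Fab wells pretreated with CD28 antigen or with blocking buffer only, bound phage read out via HRP-linked anti-M13 antibody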).
T1 construct: biotinylated and captured on neutravidin coated plates in the phage ELISA
T1 sequence (VH, as listed by the source, chain 1 of 2): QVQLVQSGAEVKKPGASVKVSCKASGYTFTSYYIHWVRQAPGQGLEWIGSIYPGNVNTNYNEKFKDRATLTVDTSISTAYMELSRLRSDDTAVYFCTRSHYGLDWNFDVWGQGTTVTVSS
T1 sequence (VL, as listed by the source, chain 2 of 2): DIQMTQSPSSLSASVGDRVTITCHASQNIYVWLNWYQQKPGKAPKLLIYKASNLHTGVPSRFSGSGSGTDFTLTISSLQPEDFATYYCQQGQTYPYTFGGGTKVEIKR
Method: (§1) Clonal phage were harvested as crude supernatants and screened via standard ELISAs. […] Prior to the addition of clonal phage, wells were incubated with blocking buffer and CD28 antigen or blocking buffer alone. Without washing or aspirating, clonal phage supernatants were then added to the wells and incubated for a short time. Wells were then washed followed by detection of bound phage using a horse radish conjugated anti-M13 antibody.

| Binder | Anti-CD28 Fab (SEQ ID NOs: 202, 203) signal |
| --- | --- |
| YCDGHSWAYMWKCL [Phage-341] | 1.85 |
| YCDGHSAAYIMKCL [Phage-342] | 1.84 |
| YCDGHSLQYLGKCL [Phage-343] | 1.84 |
| YCAGHLPEYLSKCL [Phage-345] | 1.84 |
| YCEGHLQIYMSKCL [Phage-346] | 1.84 |
| YCEGHLPIYMSKCL [Phage-388] | 1.76 |
| YCAGHAPEYMFKCM [Phage-347] | 1.83 |
| YCDGHSPAYMAKCL [Phage-350] | 1.83 |
| YCDGHSSEYIAKCL [Phage-383] | 1.77 |
| YCDGHSPEYIAKCL [Phage-374] | 1.79 |
| YCDGHAWEYMTKCL [Phage-448] | 1.69 |
| YCQGHSAEYMMKCL [Phage-364] | 1.81 |
| YCDGHKAEYMEKCL [Phage-366] | 1.81 |
| YCAGHLPMYMAKCL [Phage-367] | 1.8 |
| YCDGHTREYIDKCL [Phage-368] | 1.8 |
| YCVGHAPEFMAKCL [Phage-369] | 1.8 |
| YCAGHAEQYMAKCL [Phage-370] | 1.8 |
| YCDGHLGVYMAKCL [Phage-372] | 1.79 |
| YCDGHTSEYITKCL [Phage-373] | 1.79 |
| YCAGHVPEYMAKCL [Phage-379] | 1.78 |
| YCDGHSAEYITKCL [Phage-380] | 1.77 |

Each binder was assayed against T1, anti-CD28 Fab (SEQ ID NOs: 202, 203) (assay: phage binding ELISA; Fab wells pre-incubated with CD28 antigen (competitor);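 also: clonal phage supernatants added to wells preincubated with CD28 antigen in blocking buffer versus blocking buffer alone, washed, bound phage read by HRP-conjugated anti-M13 antibody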).
Method: as §1

| Binder | Anti-CD28 Fab signal in the presence of CD28 |
| --- | --- |
| YCDGHSWAYMWKCL [Phage-341] | 0.13 |
| YCDGHSAAYIMKCL [Phage-342] | 0.09 |
| YCDGHSLQYLGKCL [Phage-343] | 0.09 |
| YCAGHLPEYLSKCL [Phage-345] | 0.07 |
| YCEGHLQIYMSKCL [Phage-346] | 0.14 |
| YCEGHLPIYMSKCL [Phage-388] | 0.09 |
| YCAGHAPEYMFKCM [Phage-347] | 0.06 |
| YCDGHSPAYMAKCL [Phage-350] | 0.1 |
| YCDGHSSEYIAKCL [Phage-383] | 0.07 |
| YCDGHSPEYIAKCL [Phage-374] | 0.23 |
| YCDGHAWEYMTKCL [Phage-448] | 0.35 |
| YCQGHSAEYMMKCL [Phage-364] | 0.07 |
| YCDGHKAEYMEKCL [Phage-366] | 0.09 |
| YCAGHLPMYMAKCL [Phage-367] | 0.08 |
| YCDGHTREYIDKCL [Phage-368] | 0.08 |
| YCVGHAPEFMAKCL [Phage-369] | 0.1 |
| YCAGHAEQYMAKCL [Phage-370] | 0.08 |
| YCDGHLGVYMAKCL [Phage-372] | 0.07 |
| YCDGHTSEYITKCL [Phage-373] | 0.07 |
| YCAGHVPEYMAKCL [Phage-379] | 0.07 |
| YCDGHSAEYITKCL [Phage-380] | 0.06 |
